# According to patent US12459997B2, “Compounds and methods targeting interleukin-19” (Eli Lilly and Company, priority 2018, dated 2025):
# Residue numbers refer to the chain shown, from its start.
# T1: recombinant human IL-19 (Homo sapiens, UniProt Q9UHD0)
# T1 sequence (Q9UHD0 25-177): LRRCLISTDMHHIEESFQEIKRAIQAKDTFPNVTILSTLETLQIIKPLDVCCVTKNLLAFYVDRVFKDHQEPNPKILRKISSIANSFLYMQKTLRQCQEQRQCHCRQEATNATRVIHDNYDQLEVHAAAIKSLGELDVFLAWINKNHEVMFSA
# T2: human IL-19 / human IL-20R beta Fc-fusion protein (Homo sapiens, UniProt Q9UHD0)
# T2 sequence (Q9UHD0 25-177): T1 sequence (Q9UHD0 25-177)
# B1: R_3: rabbit-derived IL-19 antibody; LCVR SEQ ID NO: 50, HCVR SEQ ID NO: 54 (antibody, V domains shown)
# VH: QCQSLEESGGGLVEPEGSLTLTCKASGFSFSSSYWICWVRQAPGKGLEWIACTDTFSGDTYYASWAKGRFTISKTSSTTVTLRMTSLTDADTATYFCARDIFGTAVHISLWGPGTLVTVSS
# VL: ADVVMTQTPSSVEAAVGGTVTIKCQASQSIGSSLAWYQQKPGQRPKLLIYGASTLASGVPSRFKGSGSGTEFTLTISDLECADAATYYCQCHYHGSSYWDNSFGGGTEVVVK
# B2: R_4: rabbit-derived IL-19 antibody; LCVR SEQ ID NO: 58, HCVR SEQ ID NO: 62 (antibody, V domains shown)
# VH: QCQSVEESGGRLVTPGTPLTLTCTVSGIDLSIYAMGWVRQAPGKGLEYIGIIDTTGTAYYARWAKGRFTISKTSATVALKITSPTTEDTATYFCARDSGSLYYGSYALWGPGTLVTVSS
# VL: ADVVMTQTPSSVSEPVGGTVTIKCQASQSIYSYLSWYQQKPGQPPKLLIYEASKLASGVPSRFKGSGSGTQFTLTISGVECADAATYYCQQGYSSSNVDNTFGGGTEVVVT
# B3: R_1: rabbit-derived IL-19 antibody; LCVR SEQ ID NO: 34, HCVR SEQ ID NO: 38 (antibody, V domains shown)
# VH: QQLEESGGGLVQPEGSLTLTCTASGFSFSSSYWICWVRQAPGKGLEWLACIDTGVSGDTYYANWAEGRFTISKTSSTTVTLQMTSLTAADTATYFCARDIFGSAIDNSLWGPGTLVTVSS
# VL: AIDMTQTPASVSEPVGGTVTIKCQASQSISSYLAWYQQKPGQPPKLLIYSASTLASGVPSRFRGSGSGREFTLTISDLECADAATYYCQCHYHGSSYWDNSFGGGTEVVVK
# B4: R_2: rabbit-derived IL-19 antibody; LCVR SEQ ID NO: 42, HCVR SEQ ID NO: 46 (antibody, V domains shown)
# VH: B3 VH with E66K
# VL: B1 VL with S10A, Q28E, S32N, S33A, R44P, G51D, T54K, E71Q
# B5: M_5: murine-derived IL-19 antibody; LC SEQ ID NO: 312, HC SEQ ID NO: 313 (antibody)
# heavy: EVQLQQSGPVLVKPGASVKMSCKASGYPFNDYFLGWVKQSHGKSLEWIGSINPDNDYTMSNQKFKGKATLTVDKSSSTAYMELNSLTSEDSAVYYCARYDYDWAWFAHWGQGTLVTVSAAKTTPPSVYPLAPGSAAQTNSMVTLGCLVKGYFPEPVTVTWNSGSLSSGVHTFPAVLQSDLYTLSSSVTVPSSTWPSETVTCNVAHPASSTKVDKKIVPRDCGCKPCICTVPEVSSVFIFPPKPKDVLTITLTPKVTCVVVDISKDDPEVQFSWFVDDVEVHTAQTQPREEQFNSTFRSVSELPIMHQDWLNGKEFKCRVNSAAFPAPIEKTISKTKGRPKAPQVYTIPPPKEQMAKDKVSLTCMITDFFPEDITVEWQWNGQPAENYKNTQPIMDTDGSYFVYSKLNVQKSNWEAGNTFTCSVLHEGLHNHHTEKSLSHSPGK
# light: DIVMTQSPSSLAMSVGQKVTMSCKSSQSLLSSYNQKNYLAWYQRKPGQSPKLLVYFASQRATGVPDRFIGSGSGSDFTLTISSVQAEDLADYFCQQHTRLPITFGAGTKLELKRADAAPTVSIFPPSSEQLTSGGASVVCFLNNFYPKDINVKWKIDGSERQNGVLNSWTDQDSKDSTYSMSSTLTLTKDEYERHNSYTCEATHKTSTSPIVKSFNRNEC
# B6: M_1: murine-derived IL-19 antibody; LC SEQ ID NO: 2, HC SEQ ID NO: 6 (antibody)
# heavy: EVQLQQSGPVLVKPGASVKMSCKASGYKFTDYFVGWVKQSHGKSLEWIGYVDPENGYTRCNQKFKGKATLTVDKSSSTAYMELNSLTSEDSAVYYCARYDYDWAWFTNWGQGTLVTVSAAKTTPPSVYPLAPGSAAQTNSMVTLGCLVKGYFPEPVTVTWNSGSLSSGVHTFPAVLQSDLYTLSSSVTVPSSTWPSETVTCNVAHPASSTKVDKKIVPRDCGCKPCICTVPEVSSVFIFPPKPKDVLTITLTPKVTCVVVDISKDDPEVQFSWFVDDVEVHTAQTQPREEQFNSTFRSVSELPIMHQDWLNGKEFKCRVNSAAFPAPIEKTISKTKGRPKAPQVYTIPPPKEQMAKDKVSLTCMITDFFPEDITVEWQWNGQPAENYKNTQPIMDTDGSYFVYSKLNVQKSNWEAGNTFTCSVLHEGLHNHHTEKSLSHSPGK
# light: B5 light with R44Q, Q59T, A61P, T62P, T98E
# B7: M_3: murine-derived IL-19 antibody; LC SEQ ID NO: 18, HC SEQ ID NO: 22 (antibody)
# heavy: QIQLVQSGPELKKPGETVKISCKASGYTFTTYGMSWVKQAPGKGLKWMVWINTYSGVPTYVDDFKGRFAFSLETSASTAYLQINNLKNEDTATYFCARRDEGFAYWGQGTLVTVSAAKTTPPSVYPLAPGSAAQTNSMVTLGCLVKGYFPEPVTVTWNSGSLSSGVHTFPAVLQSDLYTLSSSVTVPSSTWPSETVTCNVAHPASSTKVDKKIVPRDCGCKPCICTVPEVSSVFIFPPKPKDVLTITLTPKVTCVVVDISKDDPEVQFSWFVDDVEVHTAQTQPREEQFNSTFRSVSELPIMHQDWLNGKEFKCRVNSAAFPAPIEKTISKTKGRPKAPQVYTIPPPKEQMAKDKVSLTCMITDFFPEDITVEWQWNGQPAENYKNTQPIMDTDGSYFVYSKLNVQKSNWEAGNTFTCSVLHEGLHNHHTEKSLSHSPGK
# light: DIKMTQSPSSMYASLGERVTITCKASQDINSYLSWFQQKPGKSPKTLIYRANRLVDGVPSRFSGSGSGQDYSLTISSLEYEDMGIYFCLQYDDFPYTFGGGTKLEIKRADAAPTVSIFPPSSEQLTSGGASVVCFLNNFYPKDINVKWKIDGSERQNGVLNSWTDQDSKDSTYSMSSTLTLTKDEYERHNSYTCEATHKTSTSPIVKSFNRNEC
# Molecular target: T1, recombinant human IL-19
# Assay: Bio-layer interferometry (BLI) binding kinetics and affinity (Octet Red96)
# Details: 25° C.; 1:1 binding model
# Method: Bio-layer interferometry (BLI) assay, measured with a Octet Red96® instrument available from ForteBio (using HBS-EP+ running buffer (GE Healthcare, 10 mM Hepes pH7.4+150 mM NaCl+3 mM EDTA+0.05% surfactant P20) at 25° C.), is used to measure binding of the exemplified IL-19 antibodies of the present invention to recombinant human IL-19 (having the amino acid sequence set for in SEQ ID NO: 1).
# Except as noted, all reagents and materials are from ForteBio (Freemont, Calif.). An AMQ biosensor is used to immobilize antibody of interest for analysis. […] Recombinant human IL-19 is prepared to concentrations of 270, 90, 30, 10, 3.33, 1.11, 0.370, and 0 (blank) nM by dilution into running buffer. Each analysis consists of: (1) capturing antibody samples on biosensors for 300 secs; (2) establishing a baseline by incubating antibody loaded biosensors with running buffer for 60 secs; (3) incubating antibody loaded biosensors with serially diluted recombinant human IL-19 for 300 secs to monitor association phase; (4) return of biosensor to running buffer to monitor dissociation phase.
# Binding data is processed using standard double-referencing and fit to a 1:1 binding model using Data Analysis v9.0 evaluation software, to determine the association rate (kon, M^−1 s^−1 units), dissociation rate (koff, s^−1 units), and Rmax (nm units). The equilibrium dissociation constant (KD) was calculated from the relationship KD=koff/kon, and is in molar units.
row,kon,Molecule
1,391000 M⁻¹ s⁻¹,B1
2,152000 M⁻¹ s⁻¹,B2
3,33300 M⁻¹ s⁻¹,B3
4,428000 M⁻¹ s⁻¹,B4

# Molecular target: T1, recombinant human IL-19
# Assay: Binning by cross-competition binding assay (Octet Red96)
# Details: not given
# From the text: Binning experiments involve competing monoclonal antibodies against one another in a pairwise and combinatorial fashion for binding to a specific antigen. A “bin” is a relative concept, based upon the epitope regions represented within the panel of monoclonal antibodies being tested. Two antibodies belong to the same bin if they cannot pair with one another and share the same blocking profile when tested against the other antibodies (or bins of antibodies) in the test panel. Binning of exemplified antibodies of the present invention may be performed by cross-competition binding assays using the Octet Red96®, available from ForteBio, according to manufacturer instruction. Briefly, to determine if two antibodies share overlapping epitope regions, an exemplified antibody is labeled with biotin and captured onto streptavidin sensor tip. The coated biosensor up is then incubated with recombinant human IL-19 to saturate the capture antibody binding sites. The capture antibody-antigen complex is then incubated with a detection antibody. […] Antibodies with a same binding profile are grouped together into the same bin.
row,Binning Group,Molecule
1,3,B1
2,4,B2
3,3,B3
4,3,B4

# Molecular target: T1, recombinant human IL-19
# Assay: PathHunter eXpress IL20RA/IL20RB dimerization assay (cell-based neutralization)
# Design: host or cells: PathHunter eXpress IL20RA/IL20RB cells (DiscoverX 93-1027E3) carry the receptor partners
# Details: eight experiments
# From the text: PathHunter® eXpress IL20RA/IL20RB dimerization assay (DiscoverX product code 93-1027E3) is used to assess ability of exemplified antibodies to prevent binding of human IL-19 recombinant protein in a cell-based assay format. The assay detects ligand induced dimerization of two subunits of a receptor-dimer pair. The cells have been engineered to co-express one receptor subunit fused to enzyme donor and a second dimer partner fused to enzyme acceptor. Binding of an agonist to one receptor subunit induces it to interact with its dimer partner, forcing complementation of the two enzyme fragments resulting in the formation of a functional enzyme that hydrolizes a substrate to generate a chemiluminescent signal. […] Human IL-19 recombinant protein with and without exemplified antibodies mixture is then incubated with cells overnight at 37° C./5% CO2. Substrate buffer is added to cells and incubated at room temperature for 1 hour in the dark before luminescent detection.
row,% inhibition +/− SEM (maximum signal inhibition percentage),Molecule
1,105.03 +/− 1.38%,B5
2,98.59 +/− 0.42%,B6

# Molecular target: T2, human IL-19 / human IL-20R beta Fc-fusion protein
# Assay: BLI in vitro neutralization: IL-19 captured by antibody, then incubated with IL-20R beta Fc
# Details: block of IL-19 binding to soluble receptor
# From the text: Alternatively, a biophysical assay such as bio-layer interferometry (BLI) may be used for assessing neutralization of IL-19 by antibodies of the present invention. Binding between a ligand immobilized on the biosensor tip surface and an analyte in solution produces an increase in optical thickness at the biosensor tip, which results in a wavelength shift (expressed in nm). According to such assay, the IL-19 receptor (i.e., […]) is expressed in a membrane-free manner (such as with an Fc-fusion e.g. IL20Rbeta Fc chimera protein from R&D Systems catalog 1788-IR-050). […] The immobilized antibodies are then incubated with recombinant human IL-19 protein diluted to 100 nM using HBS-EP+ running buffer (GE Healthcare, 10 mM Hepes pH7.4+150 mM NaCl+3 mM EDTA+0.05% surfactant P20) for 240-300 secs. The human IL-19, after binding to the anti-IL-19 antibody, is assessed by incubation with human IL-20R beta Fc-fusion protein for 240-300 secs. The ability of the antibody to block or neutralize binding of the IL-19 ligand to the soluble receptor is observed as a minimal (<0.025 nm) increase in the wavelength during this step of the assay.
row,Molecule,Neutralization
1,B7,No
2,B5,Yes (minimal (<0.025 nm) increase in the wavelength)
3,B6,Yes (minimal (<0.025 nm) increase in the wavelength)
